Data from PMC6239862.

Target: Q-PAS1 fragment of PpsR2 (Q-linker and PAS1 domain) fused with mRuby2 (Rhodopseudomonas palustris)
Assay: cross-linking

stoichiometry N: 2
Substance: Q-PAS1 fragment of PpsR2 (Q-linker and PAS1 domain) fused with mRuby2 (domain or fragment)
